From paper PMC4818545
Like-named read-outs stand apart in the source and are kept apart here.

Assays:
[1] = target: recombinant (β15–66)2 fragment; assay: ELISA
[2] = target: recombinant (β15–66)2 fragment; assay: ELISA; remark: listed apart in the source
VLDLR(2–3)HT (human) = VLDLR(2–3)HT (human) (UniProt P98155); assay: SPR
VLDLR(1–4)HT (human) = VLDLR(1–4)HT (human) (UniProt P98155); assay: SPR
VLDLR(2–4)HT (human) = VLDLR(2–4)HT (human) (UniProt P98155); assay: SPR
VLDLR(1–8)HT (human) = VLDLR(1–8)HT (human) (UniProt P98155); assay: SPR
[3] = target: recombinant (β15–66)2 fragment; assay: ELISA; remark: listed apart in the source
[4] = target: fibrin (β15-66)2 fragment 15-66 (Homo sapiens) (UniProt P02675); assay: ELISA; settings: cited from earlier work
Chain of UniProt P02675 (P02675 15-66): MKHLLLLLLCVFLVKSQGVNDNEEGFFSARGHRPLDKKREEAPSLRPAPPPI

| Substance | Kd [1] | Kd [2] | further results |
| --- | --- | --- | --- |
| VLDLR(2–3)HT (from UniProt P98155 69-151) (domain or fragment) | 78 nM | – | – |
| soluble form of human VLDL receptor, sVLDLRHT (from UniProt P98155 28-797) | 16.4 nM | 2.5 nM | – |
| recombinant (β15–66)2 fragment (domain or fragment) | – | – | Kd (VLDLR(2–3)HT (human)): 9.5 nM; Kd (VLDLR(1–4)HT (human)): 3.7 nM; Kd (VLDLR(2–4)HT (human)): 4.6 nM; Kd (VLDLR(1–8)HT (human)): 3.1 nM |
| VLDLR(1–8)HT (from UniProt P98155 28-355) (domain or fragment) | 16.3 nM | 3.4 nM | Kd [3]: 21 nM |
| VLDLR(1–4)HT (from UniProt P98155 28-190) (domain or fragment) | 60 nM | – | – |
| sVLDLR ECD (from UniProt P98155) | – | – | Kd [4]: 5.7 nM |
